Numbering of substitutions follows the chain as printed.
T1: membrane LIGHT W198A (human, UniProt O43557 1-240)
T1 chain: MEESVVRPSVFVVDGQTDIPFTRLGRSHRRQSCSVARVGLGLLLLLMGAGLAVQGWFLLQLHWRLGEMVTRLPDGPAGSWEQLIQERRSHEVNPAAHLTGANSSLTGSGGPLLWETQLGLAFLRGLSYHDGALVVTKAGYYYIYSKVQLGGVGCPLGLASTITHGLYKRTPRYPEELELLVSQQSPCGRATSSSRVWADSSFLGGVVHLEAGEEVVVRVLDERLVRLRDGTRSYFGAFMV

T2: membrane LIGHT S192A (human, UniProt O43557 1-240)
T2 chain: T1 chain with S192A, A198W

T3: membrane LIGHT R195A (human, UniProt O43557 1-240)
T3 chain: T1 chain with R195A, A198W

T4: membrane LIGHT R189A (human, UniProt O43557 1-240)
T4 chain: T1 chain with R189A, A198W

T5: membrane LIGHT V196A (human, UniProt O43557 1-240)
T5 chain: T1 chain with V196A, A198W

T6: membrane LIGHT G188A (human, UniProt O43557 1-240)
T6 construct: full-length LIGHT with the substitution on HEK293FF cells
T6 chain: T1 chain with G188A, A198W

T7: membrane LIGHT S194A (human, UniProt O43557 1-240)
T7 chain: T1 chain with S194A, A198W

B1: 3E09 (antibody, V domains shown)
VH: EVQLVESGGGLVKPGGSLKLSCEASGFTFSDYYMYWVRQTPEKRLEWVAAIGDGGIYTYYADTVKGRFTISRDNAKNILYLQMSSLKSNDTAMYYCARGTGDGFAYWGQGTLVTVS
VL: DIVLTQSPASLAVSLGQRATISCRASESVDSYGNSFMHWYQQKPGQPPKLLIYLASNLESGVPARFSGSGSRTDFTLTIDPVEADDAATYYCQQNNEDPYTFGGGTKLEIK
notes: chimeric human IgG4 (S-to-P, L-to-E at 248), human CL; also called Parental 3E09
B2: 2E08 (antibody, human IgG4, V domains shown)
VH: QVQMKESGAELVRPGVSVKISCKGSGYTFTDYAIHWVKQSHAKTLEWIGVISTYYGDASYNQKFKGKATMTVDKSSSTAYMELARLTSDDSAIYYCARSRGEYGNYDAMDYWGQGTSVTVSS
VL: DIVLTQSPASLAVSLGQRATISCKASQSVDYDGDSYMNWYQQKPGQPPKLLIYAASNLESGIPARFSGSGSGTDFTLNIHPVEEEDAATYYCQQSNEDPLTFGAGTKLELK
notes: chimeric human IgG4 (S-to-P, L-to-E at 248), human CL; also called Parental 2E08
B3: 2B11 (antibody, human IgG4, V domains shown)
VH: B2 VH with Q1E, M4L, K5V, T44S, D89E
VL: B1 VL with L54R, V62I, D80N, A87V, N95S
notes: chimeric human IgG4 (S-to-P, L-to-E at 248), human CL; also called Parental 2B11
B4: 3A07 (antibody, human IgG4, V domains shown)
VH: QVQLQQSGAELVRPGAPVTLSCKASDYTFTDSEIHWVKQTPVHGLEWIGEIDPETGGTAYNQKFKGKATLTADKSSSTAYMELRSLTSEDSAVYYCSRETDYFFDYWGQGTTLTVSS
VL: ENVLTQSPAIMSASPGEKVTMTCSASSSVSYMYWYQQRPGSSPRLLIYDTSNLASGVPVRFSGSGSGTSYSLTISRMEAEDAATYYCQQWSSYPLTFGSGTKLEIK
notes: chimeric human IgG4 (S-to-P, L-to-E at 248), human CL; also called Parental 3A07
B5: 3B04 (antibody, human IgG4, V domains shown)
VH: B4 VH with S7P, P17S, D26G, S32Y, I34M, G57D, N61S, L83F
VL: DIQMTQTPASLSASVGETVTITCGASENIYGALNWYQRKQGKSPQLLIYGATNLADGMSSRFSGSGSGRQYSLKISSLHPDDFATYYCQNVLTTPWTFGGGTKLEIKR
notes: chimeric: mouse variable domains on human IgG4 HC (S-to-P and L-to-E at 248) and human CL; also called Parental 3B04; 3B04 chimeric
B6: 3D12 (antibody, human IgG4, V domains shown)
VH: B4 VH with S7P, P17S
VL: B5 VL with T7S, F83V, T93S
notes: chimeric: mouse variable domains on human IgG4 HC (S-to-P and L-to-E at 248) and human CL; also called Parental 3D12; 3D12 chimeric
B7: 3C10 (antibody, human IgG4, V domains shown)
VH: B4 VH with Q1E, P17S
VL: B4 VL with E1D, N2V, L4M, S7T, R38K, S99A, I105L
notes: chimeric human IgG4 (S-to-P, L-to-E at 248), human CL; also called Parental 3C10

What was measured:
Assay in all cases: flow cytometry, transfected HEK293FF, mAb at EC50
[1] = biological target: T8, human LIGHT (TNFSF14), full length, membrane-bound (214E allele) (human, UniProt O43557 1-240)
T8 construct: also called membrane LIGHT; human membrane LIGHT
Experimental: (§1) The day of transfection the cells were seeded in a 24-well plate at 0.6×10⁶ cells/well. Lipofectamine 2000 (ThermoFisher scientific), 3 μl, was mixed with 50 μl OptiMEM medium (GIBCO) and then added to 50 μl Opti-MEM medium containing 3 ug plasmid DNA and incubated for 20 min at RT to form DNA-Lipofectamine 2000 complexes which were then added to the HEK293FF cells and incubated at 37° C., 5% CO₂ for 24 hours. For each construct, in duplicate, 0.60×10⁶ cells/well were used in a 96 well round bottom plate. Cells were centrifuged for 3 minutes at 300×g at 4° C., the supernatant discarded and the cells washed with 150 μl FACS buffer (0.5% FBS in phosphate buffered saline). This process was repeated 3 times. […] The wells were washed 3 times as above and 50 μl/well of goat anti-human IgG FITC (1:1500 dilution in FACS buffer, SIGMA F9512-2ML) or goat anti-mouse APC (1/500 dilution in FACS buffer, BDBioscience 550826), as appropriate, was added to the wells and incubated for 30 min at 4° C. protected from the light, with shaking. The cells were then washed as above, resuspended in 100 μl of FACS buffer and binding of the antibodies to the constructs was measured using flow cytometry and a total of 10,000 cells were acquired for each sample. Controls of buffer and secondary antibody only as well as HEK293FF non transfected cells were also used.

membrane LIGHT W198A = biological target: T1, membrane LIGHT W198A
Experimental: as §1

membrane LIGHT S192A = biological target: T2, membrane LIGHT S192A
Experimental: as §1

membrane LIGHT R195A = biological target: T3, membrane LIGHT R195A
Experimental: as §1

membrane LIGHT R189A = biological target: T4, membrane LIGHT R189A
Experimental: as §1

membrane LIGHT V196A = biological target: T5, membrane LIGHT V196A
Experimental: as §1

membrane LIGHT G188A = biological target: T6, membrane LIGHT G188A
Experimental: as §1

membrane LIGHT S194A = biological target: T7, membrane LIGHT S194A
Experimental: as §1

Row | Binder | binding, % of WT [1] [%] | binding, % of WT (membrane LIGHT W198A) [%] | binding, % of WT (membrane LIGHT S192A) [%] | binding, % of WT (membrane LIGHT R195A) [%] | binding, % of WT (membrane LIGHT R189A) [%] | binding, % of WT (membrane LIGHT V196A) [%] | binding, % of WT (membrane LIGHT G188A) [%] | binding, % of WT (membrane LIGHT S194A) [%]
1 | B1 | 100 | 48 | 50 | 1 | 1 | 34 | 35 | 1
2 | B2 | 100 | 83 | 122 | 43 | 2 | 99 | 44 | 3
3 | B3 | 100 | 77 | 96 | 78 | 0 | 73 | 3 | 0
4 | B4 | 100 | 82 | 41 | 15 | 0 | 77 | 5 | 1
5 | B5 | 100 | 81 | 88 | 1 | 0 | 80 | 6 | 0
6 | B6 | 100 | 83 | 84 | 25 | 1 | 70 | 20 | 2
7 | B7 | 100 | 86 | 35 | 6 | 0 | 78 | 3 | 0

— patent US20230035798A1 (CAPELLA BIOSCIENCE, published 2023)
